According to patent US20050203012A1:
Each block holds one substance with its values, some of them ahead of it.

Legend:
[1] = biological target: human PTH-1 receptor (human) (UniProt Q03431); assay: cell-based or functional assay
[2] = biological target: human PTH-1 receptor (human) (UniProt Q03431); assay: competition with ^125I-[Nle^8,21, Tyr^34]rat PTH-(1-34) on HKRK B7 cells
[3] = biological target: human PTH-1 receptor (human) (UniProt Q03431); assay: radioligand binding on HKRK B7 cells, no competitor, 2-8° C. for 6 hr

human PTH-1 receptor (human), sequence (Q03431 27-593): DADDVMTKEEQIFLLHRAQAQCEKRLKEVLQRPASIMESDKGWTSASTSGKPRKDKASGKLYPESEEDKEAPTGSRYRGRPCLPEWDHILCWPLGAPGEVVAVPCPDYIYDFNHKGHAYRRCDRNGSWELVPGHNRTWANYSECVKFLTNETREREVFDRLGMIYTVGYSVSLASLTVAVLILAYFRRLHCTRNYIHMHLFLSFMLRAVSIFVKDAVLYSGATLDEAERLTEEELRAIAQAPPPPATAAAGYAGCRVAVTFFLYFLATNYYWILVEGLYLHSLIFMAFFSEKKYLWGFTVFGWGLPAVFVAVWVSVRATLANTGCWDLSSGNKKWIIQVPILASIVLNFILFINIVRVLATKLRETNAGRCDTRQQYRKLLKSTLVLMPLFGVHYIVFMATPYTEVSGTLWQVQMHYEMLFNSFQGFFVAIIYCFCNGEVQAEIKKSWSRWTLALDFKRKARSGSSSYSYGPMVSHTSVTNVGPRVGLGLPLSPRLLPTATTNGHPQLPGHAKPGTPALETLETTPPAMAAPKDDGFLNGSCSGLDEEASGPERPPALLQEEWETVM

Substance: ^125I-[Nle^8,21, Tyr^34]rat PTH-(1-34) (from UniProt P04089 32-65) (peptide)
cell-associated radioactivity (binding), basal [3]: 25500 cpm/well

Substance: desamino-[Ala^1]hPTH-(1-34) (from UniProt P01270 32-65) (peptide)
PLC Activity (% Basal) at 1000 nM [1]: 106 % Basal

Substance: hPTHrP(1-36) (from UniProt P12272 37-72) (peptide)
PLC activation at 1000 nM peptide (percent of basal) [1]: 178

Substance: desamino-[Gly^1]hPTH-(1-34) (from UniProt P01270 32-65) (peptide)
PLC Activity (% Basal) at 1000 nM [1]: 108 % Basal

Now from value to substance:

PLC Activity (% Basal) at 1000 nM [1]: 88 % Basal
Substance: hPTH-(2-34) (from UniProt P01270 33-65) (peptide)

Cyclic AMP accumulation (% Maximum) at 0.01 nM [1]: 1.7 % Maximum
Cyclic AMP accumulation (% Maximum) at 0.1 nM [1]: 14 % Maximum
Cyclic AMP accumulation (% Maximum) at 1 nM [1]: 45 % Maximum
Cyclic AMP accumulation (% Maximum) at 10 nM [1]: 93 % Maximum
Cyclic AMP accumulation (% Maximum) at 100 nM [1]: 96 % Maximum
Cyclic AMP accumulation (% Maximum) at 1000 nM [1]: 100 % Maximum
EC50 of PLC activation [1]: 30 nM
IP3 Formation (% Maximum) at 1000 nM [1]: 87 % Maximum
IP3 Formation (% Maximum) at 10000 nM [1]: 100 % Maximum
IP3 formation at maximal concentrations of hPTH-(1-34) [1]: 1910 cpm/well
PLC Activity (% Basal) at 1000 nM [1]: 854 % Basal
cAMP accumulation at maximal concentrations of hPTH-(1-34) (pmoles/well/15 min) [1]: 207
cell-associated radioactivity (binding) in the presence of maximal concentrations of hPTH-(1-34) [2]: 956 cpm/well
Substance: hPTH-(1-34) (from UniProt P01270 32-65) (peptide)

PLC activity at 1000 nM peptide (percent of basal) [1]: 105
Substance: [Tyr^0]hPTH-(1-34) (from UniProt P01270 32-65) (peptide)

PLC activation at 1000 nM peptide (percent of basal) [1]: 101
Substance: desamino-hPTHrP(1-36) (from UniProt P12272 37-72) (peptide)
